# Laboratory results published in article PMC9482650, “Quantitative fragmentomics allow affinity mapping of interactomes” (Nature Communications, 2022).
# B1: RPS6KA1_-2P, Q15418 (peptide)
# chain: RRVRKLPSTTL
# B2: CTNNA2, P26232 (peptide)
# chain: LSEFKAMDSF
# B3: HSPA5, P11021 (peptide)
# chain: EEDTAEKDEL
# Molecular target: T1, MPP6, Q9NZW5
# T1 sequence (Q9NZW5 125-219, limits assumed, looked up): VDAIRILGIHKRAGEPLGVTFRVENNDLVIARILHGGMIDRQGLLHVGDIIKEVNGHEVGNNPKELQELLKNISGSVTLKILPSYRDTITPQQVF
# Experiment: holdup assay
# Parameters: key: below the threshold = too weak to quantify, mostly under pKd 3.1 to 4
# Details: modified: phospho on T at position -2 from the C-terminal residue
row,pKd,Binder
1,below the threshold,B1

# Same assay, conditions: plain residues with an end cap or a label only (N-terminal biotin on a linker: ado-ado)
row,pKd,Binder
1,below the threshold,B2
2,below the threshold,B3

# Molecular target: Inadl_2, Q8NI35
# Experiment: holdup assay
# Parameters: key: below the threshold = too weak to quantify, mostly under pKd 3.1 to 4
# Details: modified: phospho on T at position -2 from the C-terminal residue
# Chain of Inadl_2, Q8NI35 (Q8NI35 238-335): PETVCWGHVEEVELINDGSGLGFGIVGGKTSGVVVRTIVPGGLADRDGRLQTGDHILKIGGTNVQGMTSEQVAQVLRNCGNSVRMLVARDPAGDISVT
row,pKd,Binder
1,below the threshold,B1

# Same assay, conditions: plain residues with an end cap or a label only (N-terminal biotin on a linker: ado-ado)
row,pKd,Binder
1,below the threshold,B2
2,below the threshold,B3

# Molecular target: NOS1, P29475
# Experiment: holdup assay
# Parameters: key: below the threshold = too weak to quantify, mostly under pKd 3.1 to 4
# Details: modified: phospho on T at position -2 from the C-terminal residue
# Chain of NOS1, P29475 (P29475 9-101): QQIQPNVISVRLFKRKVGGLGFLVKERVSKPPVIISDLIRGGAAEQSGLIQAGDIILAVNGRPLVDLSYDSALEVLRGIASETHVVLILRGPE
row,pKd,Binder
1,below the threshold,B1

# Same assay, conditions: plain residues with an end cap or a label only (N-terminal biotin on a linker: ado-ado)
row,pKd,Binder
1,below the threshold,B2
2,below the threshold,B3

# Molecular target: GRID2IP_1, A4D2P6
# Experiment: holdup assay
# Parameters: key: below the threshold = too weak to quantify, mostly under pKd 3.1 to 4
# Details: modified: phospho on T at position -2 from the C-terminal residue
# Chain of GRID2IP_1, A4D2P6 (A4D2P6 1-87): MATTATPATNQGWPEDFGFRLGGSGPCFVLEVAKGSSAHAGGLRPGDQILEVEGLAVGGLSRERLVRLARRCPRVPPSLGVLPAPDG
row,pKd,Binder
1,below the threshold,B1

# Same assay, conditions: plain residues with an end cap or a label only (N-terminal biotin on a linker: ado-ado)
row,pKd,Binder
1,below the threshold,B2
2,below the threshold,B3

# Molecular target: NHERF4_1, Q86UT5-2
# Experiment: holdup assay
# Parameters: key: below the threshold = too weak to quantify, mostly under pKd 3.1 to 4
# Details: modified: phospho on T at position -2 from the C-terminal residue
# Chain of NHERF4_1, Q86UT5-2 (Q86UT5 other isoform, or with tags, fused parts or gaps): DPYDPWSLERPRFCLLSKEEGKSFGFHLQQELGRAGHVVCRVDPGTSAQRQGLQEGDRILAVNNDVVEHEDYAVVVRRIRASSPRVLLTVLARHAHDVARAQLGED
row,pKd,Binder
1,3.69,B1

# Same assay, conditions: plain residues with an end cap or a label only (N-terminal biotin on a linker: ado-ado)
row,pKd,Binder
1,4.37,B2
2,3.8,B3

# Molecular target: T2, LNX2_2, Q8N448
# T2 sequence (Q8N448 334-432, limits assumed, looked up): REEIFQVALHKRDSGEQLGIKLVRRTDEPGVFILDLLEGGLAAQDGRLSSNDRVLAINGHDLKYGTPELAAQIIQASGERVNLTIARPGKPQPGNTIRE
# Experiment: holdup assay
# Parameters: key: below the threshold = too weak to quantify, mostly under pKd 3.1 to 4
# Details: modified: phospho on T at position -2 from the C-terminal residue
row,pKd,Binder
1,below the threshold,B1

# Same assay, conditions: plain residues with an end cap or a label only (N-terminal biotin on a linker: ado-ado)
row,pKd,Binder
1,below the threshold,B2
2,below the threshold,B3

# Molecular target: GRASP, Q7Z6J2
# Experiment: holdup assay
# Parameters: key: below the threshold = too weak to quantify, mostly under pKd 3.1 to 4
# Details: modified: phospho on T at position -2 from the C-terminal residue
# Chain of GRASP, Q7Z6J2 (Q7Z6J2 96-193): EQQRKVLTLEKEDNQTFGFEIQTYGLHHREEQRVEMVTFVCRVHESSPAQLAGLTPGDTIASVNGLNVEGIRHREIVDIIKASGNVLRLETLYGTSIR
row,pKd,Binder
1,below the threshold,B1

# Same assay, conditions: plain residues with an end cap or a label only (N-terminal biotin on a linker: ado-ado)
row,pKd,Binder
1,4.13,B2
2,3.94,B3

# Molecular target: T3, DLG3_3, Q92796
# T3 sequence (Q92796 374-475, limits assumed, looked up): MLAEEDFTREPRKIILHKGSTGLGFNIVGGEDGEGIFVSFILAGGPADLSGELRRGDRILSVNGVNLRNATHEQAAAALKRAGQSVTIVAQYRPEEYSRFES
# Experiment: holdup assay
# Parameters: key: below the threshold = too weak to quantify, mostly under pKd 3.1 to 4
# Details: modified: phospho on T at position -2 from the C-terminal residue
row,pKd,Binder
1,below the threshold,B1

# Same assay, conditions: plain residues with an end cap or a label only (N-terminal biotin on a linker: ado-ado)
row,pKd,Binder
1,below the threshold,B2
2,below the threshold,B3

# Molecular target: T4, TJP3_3, O95049
# T4 sequence (O95049 375-456, limits assumed, looked up): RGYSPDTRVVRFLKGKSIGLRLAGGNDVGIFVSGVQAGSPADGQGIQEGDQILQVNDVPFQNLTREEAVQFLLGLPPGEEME
# Experiment: holdup assay
# Parameters: key: below the threshold = too weak to quantify, mostly under pKd 3.1 to 4
# Details: modified: phospho on T at position -2 from the C-terminal residue
row,pKd,Binder
1,below the threshold,B1

# Same assay, conditions: plain residues with an end cap or a label only (N-terminal biotin on a linker: ado-ado)
row,pKd,Binder
1,below the threshold,B2
2,below the threshold,B3

# Molecular target: DLG4_1, P78352
# Experiment: holdup assay
# Parameters: key: below the threshold = too weak to quantify, mostly under pKd 3.1 to 4
# Details: modified: phospho on T at position -2 from the C-terminal residue
# Chain of DLG4_1, P78352 (P78352 62-152): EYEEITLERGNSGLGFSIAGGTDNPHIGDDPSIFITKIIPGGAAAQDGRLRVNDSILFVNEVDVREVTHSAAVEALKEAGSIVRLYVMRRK
row,pKd,Binder
1,below the threshold,B1

# Same assay, conditions: plain residues with an end cap or a label only (N-terminal biotin on a linker: ado-ado)
row,pKd,Binder
1,below the threshold,B2
2,below the threshold,B3

# Molecular target: NHERF2_2, Q15599
# Experiment: holdup assay
# Parameters: key: below the threshold = too weak to quantify, mostly under pKd 3.1 to 4
# Details: modified: phospho on T at position -2 from the C-terminal residue
# Chain of NHERF2_2, Q15599 (Q15599 142-238): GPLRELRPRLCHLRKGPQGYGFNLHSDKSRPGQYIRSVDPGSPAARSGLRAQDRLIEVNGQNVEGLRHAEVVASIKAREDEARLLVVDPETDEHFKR
row,pKd,Binder
1,below the threshold,B1

# Same assay, conditions: plain residues with an end cap or a label only (N-terminal biotin on a linker: ado-ado)
row,pKd,Binder
1,below the threshold,B2
2,3.7,B3

# Molecular target: T5, APBA1_1, Q02410
# T5 sequence (Q02410 651-752, limits assumed, looked up): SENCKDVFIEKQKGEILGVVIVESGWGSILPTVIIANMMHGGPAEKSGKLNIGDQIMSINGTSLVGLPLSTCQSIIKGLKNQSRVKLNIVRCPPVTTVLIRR
# Experiment: holdup assay
# Parameters: key: below the threshold = too weak to quantify, mostly under pKd 3.1 to 4
# Details: modified: phospho on T at position -2 from the C-terminal residue
row,pKd,Binder
1,below the threshold,B1

# Same assay, conditions: plain residues with an end cap or a label only (N-terminal biotin on a linker: ado-ado)
row,pKd,Binder
1,below the threshold,B2
2,below the threshold,B3

# Molecular target: TJP1_3, Q07157
# Experiment: holdup assay
# Parameters: key: below the threshold = too weak to quantify, mostly under pKd 3.1 to 4
# Details: modified: phospho on T at position -2 from the C-terminal residue
# Chain of TJP1_3, Q07157 (Q07157 416-512): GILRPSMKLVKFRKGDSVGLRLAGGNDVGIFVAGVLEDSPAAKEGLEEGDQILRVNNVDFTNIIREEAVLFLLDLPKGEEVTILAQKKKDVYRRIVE
row,pKd,Binder
1,below the threshold,B1

# Same assay, conditions: plain residues with an end cap or a label only (N-terminal biotin on a linker: ado-ado)
row,pKd,Binder
1,below the threshold,B2
2,below the threshold,B3

# Molecular target: MAGI1_1, Q96QZ7
# Experiment: holdup assay
# Parameters: key: below the threshold = too weak to quantify, mostly under pKd 3.1 to 4
# Details: modified: phospho on T at position -2 from the C-terminal residue
# Chain of MAGI1_1, Q96QZ7 (Q96QZ7 1-106): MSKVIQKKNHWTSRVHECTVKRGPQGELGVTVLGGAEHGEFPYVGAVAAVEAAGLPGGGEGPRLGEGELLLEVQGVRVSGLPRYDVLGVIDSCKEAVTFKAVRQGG
row,pKd,Binder
1,below the threshold,B1

# Same assay, conditions: plain residues with an end cap or a label only (N-terminal biotin on a linker: ado-ado)
row,pKd,Binder
1,below the threshold,B2
2,3.51,B3

# Molecular target: T6, GRIP1_7, Q9Y3R0
# T6 sequence (Q9Y3R0 999-1096, limits assumed, looked up): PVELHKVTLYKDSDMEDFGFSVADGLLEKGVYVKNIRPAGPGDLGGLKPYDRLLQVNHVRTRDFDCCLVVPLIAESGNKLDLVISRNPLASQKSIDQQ
# Experiment: holdup assay
# Parameters: key: below the threshold = too weak to quantify, mostly under pKd 3.1 to 4
# Details: modified: phospho on T at position -2 from the C-terminal residue
row,pKd,Binder
1,3.63,B1

# Same assay, conditions: plain residues with an end cap or a label only (N-terminal biotin on a linker: ado-ado)
row,pKd,Binder
1,below the threshold,B2
2,below the threshold,B3

# Molecular target: TJP2_1, Q9UDY2
# Experiment: holdup assay
# Parameters: key: below the threshold = too weak to quantify, mostly under pKd 3.1 to 4
# Details: modified: phospho on T at position -2 from the C-terminal residue
# Chain of TJP2_1, Q9UDY2 (Q9UDY2 24-128): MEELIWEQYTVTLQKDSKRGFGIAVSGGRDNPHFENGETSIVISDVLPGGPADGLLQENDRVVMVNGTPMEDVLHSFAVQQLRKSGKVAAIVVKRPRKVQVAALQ
row,pKd,Binder
1,below the threshold,B1

# Same assay, conditions: plain residues with an end cap or a label only (N-terminal biotin on a linker: ado-ado)
row,pKd,Binder
1,below the threshold,B2
2,below the threshold,B3

# Molecular target: T7, HTRA4, P83105
# T7 sequence (P83105 378-476, limits assumed, looked up): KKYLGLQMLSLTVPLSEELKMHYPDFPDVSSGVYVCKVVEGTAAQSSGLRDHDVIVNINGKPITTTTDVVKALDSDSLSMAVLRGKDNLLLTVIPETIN
# Experiment: holdup assay
# Parameters: key: below the threshold = too weak to quantify, mostly under pKd 3.1 to 4
# Details: modified: phospho on T at position -2 from the C-terminal residue
row,pKd,Binder
1,below the threshold,B1

# Same assay, conditions: plain residues with an end cap or a label only (N-terminal biotin on a linker: ado-ado)
row,pKd,Binder
1,below the threshold,B2
2,below the threshold,B3

# Molecular target: PICK1, Q9NRD5
# Experiment: holdup assay
# Parameters: key: below the threshold = too weak to quantify, mostly under pKd 3.1 to 4
# Details: modified: phospho on T at position -2 from the C-terminal residue
# Chain of PICK1, Q9NRD5 (Q9NRD5 17-115): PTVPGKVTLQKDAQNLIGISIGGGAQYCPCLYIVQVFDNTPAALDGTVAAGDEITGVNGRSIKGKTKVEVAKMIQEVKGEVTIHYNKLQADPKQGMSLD
row,pKd,Binder
1,below the threshold,B1

# Same assay, conditions: plain residues with an end cap or a label only (N-terminal biotin on a linker: ado-ado)
row,pKd,Binder
1,below the threshold,B2
2,below the threshold,B3

# Molecular target: T8, ARHGAP21, Q5T5U3
# T8 sequence (Q5T5U3 45-169, limits assumed, looked up): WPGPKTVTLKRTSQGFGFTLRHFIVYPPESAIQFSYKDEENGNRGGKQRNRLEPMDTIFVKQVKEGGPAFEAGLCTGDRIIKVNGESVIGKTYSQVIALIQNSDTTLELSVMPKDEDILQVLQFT
# Experiment: holdup assay
# Parameters: key: below the threshold = too weak to quantify, mostly under pKd 3.1 to 4
# Details: modified: phospho on T at position -2 from the C-terminal residue
row,pKd,Binder
1,below the threshold,B1

# Same assay, conditions: plain residues with an end cap or a label only (N-terminal biotin on a linker: ado-ado)
row,pKd,Binder
1,below the threshold,B2
2,4.05,B3

# Molecular target: T9, LIN7A, O14910
# T9 sequence (O14910 103-200, limits assumed, looked up): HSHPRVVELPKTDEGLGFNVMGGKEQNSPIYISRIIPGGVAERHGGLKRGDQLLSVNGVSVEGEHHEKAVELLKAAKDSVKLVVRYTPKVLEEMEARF
# Experiment: holdup assay
# Parameters: key: below the threshold = too weak to quantify, mostly under pKd 3.1 to 4
# Details: modified: phospho on T at position -2 from the C-terminal residue
row,pKd,Binder
1,below the threshold,B1

# Same assay, conditions: plain residues with an end cap or a label only (N-terminal biotin on a linker: ado-ado)
row,pKd,Binder
1,below the threshold,B2
2,3.49,B3

# Molecular target: T10, RAPGEF6, Q8TEU7
# T10 sequence (Q8TEU7 525-625, limits assumed, looked up): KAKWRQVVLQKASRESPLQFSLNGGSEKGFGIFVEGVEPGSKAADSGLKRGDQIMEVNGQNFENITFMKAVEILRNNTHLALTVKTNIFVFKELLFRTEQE
# Experiment: holdup assay
# Parameters: key: below the threshold = too weak to quantify, mostly under pKd 3.1 to 4
# Details: modified: phospho on T at position -2 from the C-terminal residue
row,pKd,Binder
1,below the threshold,B1

# Same assay, conditions: plain residues with an end cap or a label only (N-terminal biotin on a linker: ado-ado)
row,pKd,Binder
1,below the threshold,B2
2,below the threshold,B3

# Molecular target: NHERF4_4, Q86UT5
# Experiment: holdup assay
# Parameters: key: below the threshold = too weak to quantify, mostly under pKd 3.1 to 4
# Details: modified: phospho on T at position -2 from the C-terminal residue
# Chain of NHERF4_4, Q86UT5 (Q86UT5 464-550): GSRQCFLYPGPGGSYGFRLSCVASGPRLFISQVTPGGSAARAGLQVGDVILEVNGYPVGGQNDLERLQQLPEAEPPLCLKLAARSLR
row,pKd,Binder
1,below the threshold,B1

# Same assay, conditions: plain residues with an end cap or a label only (N-terminal biotin on a linker: ado-ado)
row,pKd,Binder
1,below the threshold,B2
2,below the threshold,B3

# Molecular target: Inadl_9, Q8NI35
# Experiment: holdup assay
# Parameters: key: below the threshold = too weak to quantify, mostly under pKd 3.1 to 4
# Details: modified: phospho on T at position -2 from the C-terminal residue
# Chain of Inadl_9, Q8NI35 (Q8NI35 1530-1615): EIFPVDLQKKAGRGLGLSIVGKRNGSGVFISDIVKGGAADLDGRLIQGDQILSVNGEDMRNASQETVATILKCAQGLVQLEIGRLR
row,pKd,Binder
1,below the threshold,B1

# Same assay, conditions: plain residues with an end cap or a label only (N-terminal biotin on a linker: ado-ado)
row,pKd,Binder
1,below the threshold,B2
2,below the threshold,B3

# Molecular target: T11, APBA1_2, Q02410
# T11 sequence (Q02410 742-832, limits assumed, looked up): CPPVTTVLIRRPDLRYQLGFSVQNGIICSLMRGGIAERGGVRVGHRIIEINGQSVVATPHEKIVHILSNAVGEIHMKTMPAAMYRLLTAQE
# Experiment: holdup assay
# Parameters: key: below the threshold = too weak to quantify, mostly under pKd 3.1 to 4
# Details: modified: phospho on T at position -2 from the C-terminal residue
row,pKd,Binder
1,below the threshold,B1

# Same assay, conditions: plain residues with an end cap or a label only (N-terminal biotin on a linker: ado-ado)
row,pKd,Binder
1,below the threshold,B2
2,below the threshold,B3

# Molecular target: T12, SNTB1, Q13884
# T12 sequence (Q13884 107-205, limits assumed, looked up): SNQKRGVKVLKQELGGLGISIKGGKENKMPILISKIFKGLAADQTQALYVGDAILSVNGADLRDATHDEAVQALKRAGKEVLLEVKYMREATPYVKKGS
# Experiment: holdup assay
# Parameters: key: below the threshold = too weak to quantify, mostly under pKd 3.1 to 4
# Details: modified: phospho on T at position -2 from the C-terminal residue
row,pKd,Binder
1,below the threshold,B1

# Same assay, conditions: plain residues with an end cap or a label only (N-terminal biotin on a linker: ado-ado)
row,pKd,Binder
1,below the threshold,B2
2,below the threshold,B3
